B1: TMEM192 (parent)
chain: ILGKVILWILHLLLECYIQYHHSK

Variants of: B1
Assay: protein stability index of a GFP-peptide fusion (GPS, HEK-293T) (PSI 1-6); higher = more stable
Conditions: c terminus: a fixed tail appended
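Further: lentivirally expressed fusions sorted by FACS into six bins by GFP to DsRed ratio, PSI derived from sequencing read proportions per bin multiplied by bin number.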

**Q.** For ILGKVILWIMHLLLECYIQYHHSK, which protein stability index is on record?
**A.** 3.36

**Q.** Which protein stability index does the source give for ILGKVILWIIHLLLECYIQYHHSK here?
**A.** 3.22

**Q.** With ILGKVILWIPHLLLECYIQYHHSK as the variant, how does the protein stability index read?
**A.** 3.36

**Q.** For ILGKVILWIFHLLLECYIQYHHSK, which protein stability index is on record?
**A.** 3.04

**Q.** Which protein stability index does the source give for ILGKVILWIDHLLLECYIQYHHSK here?
**A.** 2.76

**Q.** Which protein stability index does the source give for ILGKVILWIWHLLLECYIQYHHSK here?
**A.** 3.83

**Q.** For ILGKVILWIRHLLLECYIQYHHSK, which protein stability index is on record?
**A.** 1.98

**Q.** For ILGKVILWIKHLLLECYIQYHHSK, which protein stability index is on record?
**A.** 1.75

**Q.** For ILGKVILWISHLLLECYIQYHHSK, which protein stability index is on record?
**A.** 2.3

**Q.** With ILGKVILWINHLLLECYIQYHHSK as the variant, how does the protein stability index read?
**A.** 3.04

**Q.** Which protein stability index does the source give for ILGKVILWIAHLLLECYIQYHHSK here?
**A.** 2.54

**Q.** For ILGKVILWITHLLLECYIQYHHSK, which protein stability index is on record?
**A.** 2.19

**Q.** With ILGKVILWIVHLLLECYIQYHHSK as the variant, how does the protein stability index read?
**A.** 2.85

**Q.** Which protein stability index does the source give for ILGKVILWIEHLLLECYIQYHHSK here?
**A.** 5.03

**Q.** With ILGKVILWICHLLLECYIQYHHSK as the variant, how does the protein stability index read?
**A.** 1.5

**Q.** Which protein stability index does the source give for ILGKVILWILHLLCECYIQYHHSK here?
**A.** 2.25

**Q.** Which protein stability index does the source give for ILGKVILWILHLLEECYIQYHHSK here?
**A.** 3.72

**Q.** Which protein stability index does the source give for ILGKVILWILHLLDECYIQYHHSK here?
**A.** 3.16

**Q.** With ILGKVILWILHLLFECYIQYHHSK as the variant, how does the protein stability index read?
**A.** 2.75

**Q.** Which protein stability index does the source give for ILGKVILWILHLLAECYIQYHHSK here?
**A.** 2.08

**Q.** With ILGKVILWILGLLLECYIQYHHSK as the variant, how does the protein stability index read?
**A.** 2.09

**Q.** Which protein stability index does the source give for ILGKVILWILWLLLECYIQYHHSK here?
**A.** 2.94

**Q.** For ILGKVILWILTLLLECYIQYHHSK, which protein stability index is on record?
**A.** 2.63

**Q.** With ILGKVILWILFLLLECYIQYHHSK as the variant, how does the protein stability index read?
**A.** 3.18

**Q.** For ILGKVILWILNLLLECYIQYHHSK, which protein stability index is on record?
**A.** 2.91

**Q.** For ILGKVILWILALLLECYIQYHHSK, which protein stability index is on record?
**A.** 2.76

**Q.** With ILGKVILWILPLLLECYIQYHHSK as the variant, how does the protein stability index read?
**A.** 3.26

**Q.** Which protein stability index does the source give for ILGKVILWILYLLLECYIQYHHSK here?
**A.** 2.56

**Q.** With ILGKVILWILCLLLECYIQYHHSK as the variant, how does the protein stability index read?
**A.** 3.27

**Q.** With ILGKVILWILKLLLECYIQYHHSK as the variant, how does the protein stability index read?
**A.** 3.6

**Q.** For ILGKVILWILRLLLECYIQYHHSK, which protein stability index is on record?
**A.** 3.16

**Q.** With ILGKVILWILMLLLECYIQYHHSK as the variant, how does the protein stability index read?
**A.** 4.49

**Q.** With ILGKVILWILVLLLECYIQYHHSK as the variant, how does the protein stability index read?
**A.** 3.77

**Q.** For ILGKVILWILILLLECYIQYHHSK, which protein stability index is on record?
**A.** 3.89

**Q.** For ILGKVILWILQLLLECYIQYHHSK, which protein stability index is on record?
**A.** 2.29

**Q.** Which protein stability index does the source give for ILGKVILWILSLLLECYIQYHHSK here?
**A.** 2.22

**Q.** Which protein stability index does the source give for ILGKVILWILHGLLECYIQYHHSK here?
**A.** 3.98

**Q.** Which protein stability index does the source give for ILGKVILWILHALLECYIQYHHSK here?
**A.** 3

**Q.** For ILGKVILWILHRLLECYIQYHHSK, which protein stability index is on record?
**A.** 2.87

**Q.** Which protein stability index does the source give for ILGKVILWILHWLLECYIQYHHSK here?
**A.** 3.59

**Q.** Which protein stability index does the source give for ILGKVILWILHELLECYIQYHHSK here?
**A.** 3.21

**Q.** For ILGKVILWILHQLLECYIQYHHSK, which protein stability index is on record?
**A.** 4.15

**Q.** With ILGKVILWILHVLLECYIQYHHSK as the variant, how does the protein stability index read?
**A.** 2.88

**Q.** With ILGKVILWILHHLLECYIQYHHSK as the variant, how does the protein stability index read?
**A.** 2.19

**Q.** With ILGKVILWILHMLLECYIQYHHSK as the variant, how does the protein stability index read?
**A.** 2.29

**Q.** Which protein stability index does the source give for ILGKVILWILHNLLECYIQYHHSK here?
**A.** 3.52

**Q.** Which protein stability index does the source give for ILGKVILWILHKLLECYIQYHHSK here?
**A.** 2.69

**Q.** For ILGKVILWILHPLLECYIQYHHSK, which protein stability index is on record?
**A.** 3.07

**Q.** For ILGKVILWILHDLLECYIQYHHSK, which protein stability index is on record?
**A.** 3.31

**Q.** With ILGKVILWILHFLLECYIQYHHSK as the variant, how does the protein stability index read?
**A.** 2.47

**Q.** Which protein stability index does the source give for ILGKVILWILHSLLECYIQYHHSK here?
**A.** 3.61

**Q.** With ILGKVILWILHYLLECYIQYHHSK as the variant, how does the protein stability index read?
**A.** 2.14

**Q.** For ILGKVILWILHTLLECYIQYHHSK, which protein stability index is on record?
**A.** 3.88

**Q.** Which protein stability index does the source give for ILGKVILWGLHLLLECYIQYHHSK here?
**A.** 1.96

**Q.** With ILGKVILWLLHLLLECYIQYHHSK as the variant, how does the protein stability index read?
**A.** 2.68

**Q.** With ILGKVILWPLHLLLECYIQYHHSK as the variant, how does the protein stability index read?
**A.** 3.29

**Q.** Which protein stability index does the source give for ILGKVILWELHLLLECYIQYHHSK here?
**A.** 4.08

**Q.** Which protein stability index does the source give for ILGKVILWWLHLLLECYIQYHHSK here?
**A.** 3.09

**Q.** With ILGKVILWYLHLLLECYIQYHHSK as the variant, how does the protein stability index read?
**A.** 2.94

**Q.** For ILGKVILWTLHLLLECYIQYHHSK, which protein stability index is on record?
**A.** 4.05

**Q.** With ILGKVILWKLHLLLECYIQYHHSK as the variant, how does the protein stability index read?
**A.** 3.67

**Q.** With ILGKVILWHLHLLLECYIQYHHSK as the variant, how does the protein stability index read?
**A.** 3.16

**Q.** With ILGKVILWVLHLLLECYIQYHHSK as the variant, how does the protein stability index read?
**A.** 3.3

**Q.** With ILGKVILWQLHLLLECYIQYHHSK as the variant, how does the protein stability index read?
**A.** 2.8

**Q.** For ILGKVILWDLHLLLECYIQYHHSK, which protein stability index is on record?
**A.** 2.89

**Q.** Which protein stability index does the source give for ILGKVILWFLHLLLECYIQYHHSK here?
**A.** 3.71

**Q.** Which protein stability index does the source give for ILGKVILWMLHLLLECYIQYHHSK here?
**A.** 2.58

**Q.** With ILGKVILWRLHLLLECYIQYHHSK as the variant, how does the protein stability index read?
**A.** 2.96

**Q.** With ILGKVILWCLHLLLECYIQYHHSK as the variant, how does the protein stability index read?
**A.** 2.61

**Q.** For ILGKVILWNLHLLLECYIQYHHSK, which protein stability index is on record?
**A.** 4.27

**Q.** Which protein stability index does the source give for ILGKVILRILHLLLECYIQYHHSK here?
**A.** 2.25

**Q.** For ILGKVILTILHLLLECYIQYHHSK, which protein stability index is on record?
**A.** 3.65

**Q.** For ILGKVILSILHLLLECYIQYHHSK, which protein stability index is on record?
**A.** 3.6

**Q.** Which protein stability index does the source give for ILGKVILQILHLLLECYIQYHHSK here?
**A.** 2.89

**Q.** With ILGKVILVILHLLLECYIQYHHSK as the variant, how does the protein stability index read?
**A.** 3.11

**Q.** For ILGKVILYILHLLLECYIQYHHSK, which protein stability index is on record?
**A.** 2.98

**Q.** Which protein stability index does the source give for ILGKVILWILHLQLECYIQYHHSK here?
**A.** 2.11

**Q.** For ILGKVILWILHLRLECYIQYHHSK, which protein stability index is on record?
**A.** 2.37

**Q.** For ILGKVILWILHLYLECYIQYHHSK, which protein stability index is on record?
**A.** 2.97

**Q.** With ILGKVILWILHLNLECYIQYHHSK as the variant, how does the protein stability index read?
**A.** 3.18

**Q.** For ILGKVILWILHLKLECYIQYHHSK, which protein stability index is on record?
**A.** 2.9

**Q.** Which protein stability index does the source give for ILGKVILWILHLDLECYIQYHHSK here?
**A.** 2.47

**Q.** With ILGKVILWILHLWLECYIQYHHSK as the variant, how does the protein stability index read?
**A.** 2.21

**Q.** Which protein stability index does the source give for ILGKVILWILHLPLECYIQYHHSK here?
**A.** 3.39

**Q.** Which protein stability index does the source give for ILGKVILWILHLALECYIQYHHSK here?
**A.** 3.26

**Q.** For ILGKVILWILHLCLECYIQYHHSK, which protein stability index is on record?
**A.** 2.76

**Q.** Which protein stability index does the source give for ILGKVILWILHLVLECYIQYHHSK here?
**A.** 2.8

**Q.** With ILGKVILWILHLGLECYIQYHHSK as the variant, how does the protein stability index read?
**A.** 2.25

**Q.** With ILGKVILWILHLHLECYIQYHHSK as the variant, how does the protein stability index read?
**A.** 2.83

**Q.** With ILGKVILWILHLSLECYIQYHHSK as the variant, how does the protein stability index read?
**A.** 2.98

**Q.** With ILGKVILWILHLILECYIQYHHSK as the variant, how does the protein stability index read?
**A.** 2.04

**Q.** For ILGKVILWILHLTLECYIQYHHSK, which protein stability index is on record?
**A.** 2.88

**Q.** For ILGKVILWILHLMLECYIQYHHSK, which protein stability index is on record?
**A.** 3.1

**Q.** With ILGKVILWILHLFLECYIQYHHSK as the variant, how does the protein stability index read?
**A.** 2.5
